Test results: patent publication US20050239072

Target: human recombinant prion protein hrPrP (PrP23-231) (Homo sapiens) (UniProt P04156)
Assay: FP filter
[1] = no tRNA, 250 mM NaCl, 2 mM MgCl2, 37 C

Substance	Kd [1]	Kd (with tRNA competitor)
MDV (244 nt)	7.6 nM	170 nM
MNV (86 nt)	38 nM	1000 nM
